Blank lines part the entries; values can stand above or below the substance they belong to.
Key:
[1] = target: HSA 82-aa RNC with Cys34, Cys53, and Cys62 mutated to Ala (human); experiment: high-speed atomic force microscopy
[2] = target: protein disulfide isomerase (PDI), wild type (human) (UniProt P07237); experiment: high-speed atomic force microscopy

Sequence of protein disulfide isomerase (PDI), wild type (P07237 18-508): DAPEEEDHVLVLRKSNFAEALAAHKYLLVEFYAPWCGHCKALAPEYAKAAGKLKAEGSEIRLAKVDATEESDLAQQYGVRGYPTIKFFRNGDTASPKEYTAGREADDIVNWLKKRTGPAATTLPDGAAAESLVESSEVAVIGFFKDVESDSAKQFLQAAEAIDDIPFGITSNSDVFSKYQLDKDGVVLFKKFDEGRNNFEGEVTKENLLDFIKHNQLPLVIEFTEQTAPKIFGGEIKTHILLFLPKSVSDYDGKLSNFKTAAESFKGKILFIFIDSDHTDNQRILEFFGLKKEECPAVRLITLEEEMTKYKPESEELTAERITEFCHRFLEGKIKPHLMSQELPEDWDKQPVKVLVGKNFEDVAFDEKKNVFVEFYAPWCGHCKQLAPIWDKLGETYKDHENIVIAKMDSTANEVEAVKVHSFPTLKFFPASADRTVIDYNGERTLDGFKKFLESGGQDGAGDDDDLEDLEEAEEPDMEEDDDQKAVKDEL
Sequence of protein disulfide isomerase (PDI), wild type, P07237 18-508 (enzyme; other documents disagree on this pair) (P07237 18-508): as above

RNC binding time (8/59 molecules) [1]: 60 s
Substance: ER-resident protein 46 (ERp46), wild type (from UniProt Q8NBS9 33-432) (enzyme)

RNC binding time (PDI homodimer, 17/19 molecules) [1]: > 60 s
RNC binding time (PDI monomer, 52/55 molecules) [1]: < 10 s
Substance: protein disulfide isomerase (PDI), wild type (from UniProt P07237 18-508) (enzyme)

stoichiometry N [2]: 2
Substance: protein disulfide isomerase (PDI), wild type, P07237 18-508 (enzyme; other documents disagree on this pair)

Reference: article doi:10.1101/2021.01.04.425348
